# Patent publication US11472855, “RNA-binding protein” (Panitch Schwarze Belisario & Nadel LLP)
# T1: hPUF_MT(R7_ILQ) (UniProt Q14671 SEQ:1-342)
# T1 chain: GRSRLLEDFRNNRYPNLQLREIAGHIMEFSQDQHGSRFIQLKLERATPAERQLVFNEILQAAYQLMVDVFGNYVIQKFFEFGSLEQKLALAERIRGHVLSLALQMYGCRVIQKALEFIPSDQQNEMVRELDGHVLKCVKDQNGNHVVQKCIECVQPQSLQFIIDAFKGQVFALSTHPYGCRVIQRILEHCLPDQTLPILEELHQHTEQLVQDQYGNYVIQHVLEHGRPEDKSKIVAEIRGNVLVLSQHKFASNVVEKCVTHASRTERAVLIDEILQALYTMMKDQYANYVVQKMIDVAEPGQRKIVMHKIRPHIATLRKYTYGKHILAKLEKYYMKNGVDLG
# T2: hPUF_MT(R7_IRG) (UniProt Q14671 SEQ:1-342)
# T2 chain: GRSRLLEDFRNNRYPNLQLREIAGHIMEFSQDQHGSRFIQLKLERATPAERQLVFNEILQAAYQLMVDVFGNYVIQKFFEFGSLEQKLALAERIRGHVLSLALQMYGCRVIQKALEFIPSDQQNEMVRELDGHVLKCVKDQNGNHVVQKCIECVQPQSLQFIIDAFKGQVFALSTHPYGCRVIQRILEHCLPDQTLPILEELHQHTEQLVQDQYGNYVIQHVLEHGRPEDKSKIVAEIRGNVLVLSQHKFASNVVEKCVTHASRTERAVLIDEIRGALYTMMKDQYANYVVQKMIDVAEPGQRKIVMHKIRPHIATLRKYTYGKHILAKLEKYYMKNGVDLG
# T3: hPUF_MT(R3→R5, R4→R6)
# T3 chain: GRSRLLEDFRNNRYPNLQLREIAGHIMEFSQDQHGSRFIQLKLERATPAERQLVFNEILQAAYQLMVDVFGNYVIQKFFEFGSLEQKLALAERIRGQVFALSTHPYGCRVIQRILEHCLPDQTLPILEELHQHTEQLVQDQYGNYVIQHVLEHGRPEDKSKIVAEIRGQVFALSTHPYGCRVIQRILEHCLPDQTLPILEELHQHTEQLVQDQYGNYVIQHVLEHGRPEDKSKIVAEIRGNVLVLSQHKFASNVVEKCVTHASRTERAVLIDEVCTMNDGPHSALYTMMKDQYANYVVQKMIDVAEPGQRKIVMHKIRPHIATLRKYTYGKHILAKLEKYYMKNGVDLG
# T4: hPUF_MT(R2_N12S,Q16R, R3→R5, R4→R6) (R2 repeat N12S,Q16R)
# T4 chain: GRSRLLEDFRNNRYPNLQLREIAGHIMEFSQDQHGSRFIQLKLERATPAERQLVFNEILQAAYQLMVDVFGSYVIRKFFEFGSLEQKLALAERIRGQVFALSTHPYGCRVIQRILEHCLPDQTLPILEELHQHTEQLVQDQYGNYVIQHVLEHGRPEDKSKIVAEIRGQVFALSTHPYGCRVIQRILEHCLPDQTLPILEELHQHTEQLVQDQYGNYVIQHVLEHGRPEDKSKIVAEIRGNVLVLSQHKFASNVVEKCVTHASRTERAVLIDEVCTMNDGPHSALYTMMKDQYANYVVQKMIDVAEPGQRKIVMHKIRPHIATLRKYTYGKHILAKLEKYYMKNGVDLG
# T5: hPUF_MT(R8_N12S,Q16E, R3→R5, R4→R6) (R8 repeat N12S,Q16E)
# T5 chain: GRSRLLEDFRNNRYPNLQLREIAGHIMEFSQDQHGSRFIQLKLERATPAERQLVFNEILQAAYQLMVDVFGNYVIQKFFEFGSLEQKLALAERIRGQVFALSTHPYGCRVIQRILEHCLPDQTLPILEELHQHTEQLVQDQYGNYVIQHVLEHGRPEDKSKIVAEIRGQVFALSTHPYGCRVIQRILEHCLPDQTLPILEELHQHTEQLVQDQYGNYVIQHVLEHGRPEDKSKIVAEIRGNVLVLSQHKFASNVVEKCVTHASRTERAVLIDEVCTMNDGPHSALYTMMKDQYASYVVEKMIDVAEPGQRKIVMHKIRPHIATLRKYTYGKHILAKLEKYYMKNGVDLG
# T6: hPUF_MT(R2_N12S,Q16E, R3→R5, R4→R6) (R2 repeat N12S,Q16E)
# T6 chain: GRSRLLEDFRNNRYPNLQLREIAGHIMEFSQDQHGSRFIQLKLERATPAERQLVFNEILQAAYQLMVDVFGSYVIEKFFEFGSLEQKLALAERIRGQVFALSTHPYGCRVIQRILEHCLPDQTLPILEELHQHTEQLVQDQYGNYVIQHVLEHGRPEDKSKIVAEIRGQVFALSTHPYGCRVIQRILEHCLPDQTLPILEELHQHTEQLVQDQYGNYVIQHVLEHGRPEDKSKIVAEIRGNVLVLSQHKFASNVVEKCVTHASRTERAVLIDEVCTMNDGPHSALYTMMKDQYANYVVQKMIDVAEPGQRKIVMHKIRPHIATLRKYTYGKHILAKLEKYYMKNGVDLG
# What was measured:
# Settings in all cases: label: Alexa680 at 5' and 3'
# [1] = target: human PUM1 PUF domain wild type (hPUF WT) (UniProt Q14671 SEQ:1-349); assay: EMSA; reference; 4 C, 100 mM NaCl, 1 mM EDTA, pH 7.5
# Experimental: (§1) Each purified protein was diluted to a desired concentration with Binding Buffer, mixed with a binding buffer and Ribonuclease Inhibitor, Cloned (Invitrogen), and then, mixed with the RNA probe at a final concentration of 0.5 nM. […] A binding reaction was performed at 4° C. for 30 min. Subsequently, the solution was gently mixed by pipetting. A binding reaction was performed again at 4° C. for […].
# (§2) The solution obtained after the binding reaction was applied to 6% a non-denaturing polyacrylamide gel, followed by electrophoresis at 4° C. and 200 V. When the electrophoresis marker (2 μL of 6×Dye+10 μL of 1×binding buffer) moved by 0.5 cm, the voltage was changed to 100 V, and electrophoresis was continuously performed until the electrophoresis marker moved by 3 cm. Finally, RNA was detected with Odyssey.
# [2] = target: T1, hPUF_MT(R7_ILQ); assay: EMSA; comparable to WT
# [3] = target: T2, hPUF_MT(R7_IRG); assay: EMSA; comparable to WT
# [4] = target: T3, hPUF_MT(R3→R5, R4→R6); assay: EMSA; binds U (R2 position) >> C
# Experimental: as §1, §2
# [5] = target: T4, hPUF_MT(R2_N12S,Q16R, R3→R5, R4→R6); assay: EMSA; binds C exclusively
# [6] = target: T5, hPUF_MT(R8_N12S,Q16E, R3→R5, R4→R6); assay: EMSA; binds G exclusively
# [7] = target: T6, hPUF_MT(R2_N12S,Q16E, R3→R5, R4→R6); assay: EMSA; binds G exclusively
binder,measurement,setting,value
CCAGAAUUGUAUAUAUUCG (ssRNA) [OTS-1511],binding result,[1],binds
same,binding result,[2],binds
same,binding result,[3],binds
same,binding result,[4],binds
same,binding result,[5],no binding
same,binding result,[6],no binding
same,binding result,[7],no binding
